Source: patent publication US20250262210A1 (TRUSTEES OF COLUMBIA UNIVERSITY IN THE CITY OF NEW YORK, published 2025)

Tests used:
Assay in all cases: IP/MS, LZTR1 R810W-FLAG, U87
PTPN23 = PTPN23 (human, UniProt Q9H3S7 1-1636)
Method in brief: (§1)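 Gel slices were reduced with 5 mM DTT, alkylated with 11 mM IAA and digested overnight at 37° C. with trypsin. Peptides were analysed on an Orbitrap Fusion Tribrid by LC-MS/MS.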

RNF123 = molecular target: T1, RNF123 (human, UniProt Q5XPI4 2-1314, limits assumed)
T1 sequence (looked up): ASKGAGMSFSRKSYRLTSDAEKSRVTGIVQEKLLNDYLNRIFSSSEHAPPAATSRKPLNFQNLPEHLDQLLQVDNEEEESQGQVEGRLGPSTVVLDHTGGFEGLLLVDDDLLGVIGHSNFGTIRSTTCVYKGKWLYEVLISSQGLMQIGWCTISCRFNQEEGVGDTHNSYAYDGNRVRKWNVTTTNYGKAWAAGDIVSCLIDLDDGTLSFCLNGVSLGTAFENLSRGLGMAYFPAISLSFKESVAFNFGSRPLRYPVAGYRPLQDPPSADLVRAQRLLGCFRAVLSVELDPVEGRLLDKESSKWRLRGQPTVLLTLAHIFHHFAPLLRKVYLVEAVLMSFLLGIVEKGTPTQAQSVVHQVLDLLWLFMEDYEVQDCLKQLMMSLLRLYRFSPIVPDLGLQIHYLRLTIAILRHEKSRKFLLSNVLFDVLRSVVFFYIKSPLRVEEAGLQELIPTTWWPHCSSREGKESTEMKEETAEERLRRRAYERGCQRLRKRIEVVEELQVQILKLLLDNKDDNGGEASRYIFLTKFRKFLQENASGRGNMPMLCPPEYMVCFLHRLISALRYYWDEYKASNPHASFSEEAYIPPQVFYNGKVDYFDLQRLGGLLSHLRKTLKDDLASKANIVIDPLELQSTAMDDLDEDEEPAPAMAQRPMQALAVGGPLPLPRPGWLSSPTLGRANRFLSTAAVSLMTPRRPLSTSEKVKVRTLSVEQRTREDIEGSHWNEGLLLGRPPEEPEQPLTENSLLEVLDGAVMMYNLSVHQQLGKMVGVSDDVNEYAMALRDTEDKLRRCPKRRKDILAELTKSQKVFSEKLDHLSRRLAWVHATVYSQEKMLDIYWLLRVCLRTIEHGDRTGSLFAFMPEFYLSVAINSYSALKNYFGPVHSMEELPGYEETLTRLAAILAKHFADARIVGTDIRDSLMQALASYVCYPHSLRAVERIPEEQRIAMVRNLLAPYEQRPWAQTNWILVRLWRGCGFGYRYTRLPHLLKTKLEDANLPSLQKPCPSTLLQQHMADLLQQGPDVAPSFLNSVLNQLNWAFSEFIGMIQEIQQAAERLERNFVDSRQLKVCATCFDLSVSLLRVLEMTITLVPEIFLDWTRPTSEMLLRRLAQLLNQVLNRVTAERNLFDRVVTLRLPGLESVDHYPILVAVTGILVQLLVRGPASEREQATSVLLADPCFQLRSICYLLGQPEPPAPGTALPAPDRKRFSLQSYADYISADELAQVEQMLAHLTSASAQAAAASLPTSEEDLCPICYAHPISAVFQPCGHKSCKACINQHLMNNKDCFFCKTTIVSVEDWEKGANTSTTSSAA
Method in brief: as §1

DIP2B = DIP2B (human, UniProt Q9P265 1-1576)
DIP2B, sequence (Q9P265 whole entry): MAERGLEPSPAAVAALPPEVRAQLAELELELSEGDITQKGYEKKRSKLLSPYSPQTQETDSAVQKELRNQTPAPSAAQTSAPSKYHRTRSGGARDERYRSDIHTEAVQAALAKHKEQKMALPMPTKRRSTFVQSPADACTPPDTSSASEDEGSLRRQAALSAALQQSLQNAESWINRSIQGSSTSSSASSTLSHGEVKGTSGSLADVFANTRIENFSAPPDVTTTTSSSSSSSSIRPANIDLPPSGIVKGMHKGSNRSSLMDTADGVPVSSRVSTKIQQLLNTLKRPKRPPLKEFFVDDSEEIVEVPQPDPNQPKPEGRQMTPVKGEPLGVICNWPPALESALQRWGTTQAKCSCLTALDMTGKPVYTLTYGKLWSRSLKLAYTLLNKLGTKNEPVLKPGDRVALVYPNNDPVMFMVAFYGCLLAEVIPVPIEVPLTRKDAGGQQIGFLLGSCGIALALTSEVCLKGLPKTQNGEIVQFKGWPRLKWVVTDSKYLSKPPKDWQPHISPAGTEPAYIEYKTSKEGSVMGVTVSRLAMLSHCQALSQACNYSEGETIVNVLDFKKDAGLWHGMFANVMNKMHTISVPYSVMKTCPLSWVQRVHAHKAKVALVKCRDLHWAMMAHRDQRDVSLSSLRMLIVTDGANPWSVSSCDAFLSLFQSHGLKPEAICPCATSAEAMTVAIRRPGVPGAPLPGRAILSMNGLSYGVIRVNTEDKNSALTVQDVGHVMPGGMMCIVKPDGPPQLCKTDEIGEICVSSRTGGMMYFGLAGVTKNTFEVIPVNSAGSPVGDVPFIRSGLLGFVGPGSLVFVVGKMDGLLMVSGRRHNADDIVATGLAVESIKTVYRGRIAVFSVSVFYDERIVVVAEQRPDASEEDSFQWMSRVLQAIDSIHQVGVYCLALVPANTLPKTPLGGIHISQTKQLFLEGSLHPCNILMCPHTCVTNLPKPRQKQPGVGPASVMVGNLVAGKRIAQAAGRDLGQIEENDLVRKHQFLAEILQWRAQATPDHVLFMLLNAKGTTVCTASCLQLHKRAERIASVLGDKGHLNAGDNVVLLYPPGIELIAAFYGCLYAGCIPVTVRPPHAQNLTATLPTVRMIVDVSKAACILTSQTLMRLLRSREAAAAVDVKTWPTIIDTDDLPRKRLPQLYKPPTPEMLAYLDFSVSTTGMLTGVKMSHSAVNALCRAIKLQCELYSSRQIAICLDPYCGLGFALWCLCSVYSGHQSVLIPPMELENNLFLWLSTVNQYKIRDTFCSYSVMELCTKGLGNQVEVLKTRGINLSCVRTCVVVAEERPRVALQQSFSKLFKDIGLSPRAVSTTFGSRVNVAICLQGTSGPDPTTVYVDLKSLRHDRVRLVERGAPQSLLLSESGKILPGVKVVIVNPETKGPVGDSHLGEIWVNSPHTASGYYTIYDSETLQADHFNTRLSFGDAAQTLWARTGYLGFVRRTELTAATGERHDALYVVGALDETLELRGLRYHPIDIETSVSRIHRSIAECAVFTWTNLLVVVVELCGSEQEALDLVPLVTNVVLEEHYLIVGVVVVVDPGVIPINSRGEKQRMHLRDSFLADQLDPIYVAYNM
Method in brief: as §1

Measured: binding result

PTPN23, sequence (Q9H3S7 whole entry, the tested form may be a part): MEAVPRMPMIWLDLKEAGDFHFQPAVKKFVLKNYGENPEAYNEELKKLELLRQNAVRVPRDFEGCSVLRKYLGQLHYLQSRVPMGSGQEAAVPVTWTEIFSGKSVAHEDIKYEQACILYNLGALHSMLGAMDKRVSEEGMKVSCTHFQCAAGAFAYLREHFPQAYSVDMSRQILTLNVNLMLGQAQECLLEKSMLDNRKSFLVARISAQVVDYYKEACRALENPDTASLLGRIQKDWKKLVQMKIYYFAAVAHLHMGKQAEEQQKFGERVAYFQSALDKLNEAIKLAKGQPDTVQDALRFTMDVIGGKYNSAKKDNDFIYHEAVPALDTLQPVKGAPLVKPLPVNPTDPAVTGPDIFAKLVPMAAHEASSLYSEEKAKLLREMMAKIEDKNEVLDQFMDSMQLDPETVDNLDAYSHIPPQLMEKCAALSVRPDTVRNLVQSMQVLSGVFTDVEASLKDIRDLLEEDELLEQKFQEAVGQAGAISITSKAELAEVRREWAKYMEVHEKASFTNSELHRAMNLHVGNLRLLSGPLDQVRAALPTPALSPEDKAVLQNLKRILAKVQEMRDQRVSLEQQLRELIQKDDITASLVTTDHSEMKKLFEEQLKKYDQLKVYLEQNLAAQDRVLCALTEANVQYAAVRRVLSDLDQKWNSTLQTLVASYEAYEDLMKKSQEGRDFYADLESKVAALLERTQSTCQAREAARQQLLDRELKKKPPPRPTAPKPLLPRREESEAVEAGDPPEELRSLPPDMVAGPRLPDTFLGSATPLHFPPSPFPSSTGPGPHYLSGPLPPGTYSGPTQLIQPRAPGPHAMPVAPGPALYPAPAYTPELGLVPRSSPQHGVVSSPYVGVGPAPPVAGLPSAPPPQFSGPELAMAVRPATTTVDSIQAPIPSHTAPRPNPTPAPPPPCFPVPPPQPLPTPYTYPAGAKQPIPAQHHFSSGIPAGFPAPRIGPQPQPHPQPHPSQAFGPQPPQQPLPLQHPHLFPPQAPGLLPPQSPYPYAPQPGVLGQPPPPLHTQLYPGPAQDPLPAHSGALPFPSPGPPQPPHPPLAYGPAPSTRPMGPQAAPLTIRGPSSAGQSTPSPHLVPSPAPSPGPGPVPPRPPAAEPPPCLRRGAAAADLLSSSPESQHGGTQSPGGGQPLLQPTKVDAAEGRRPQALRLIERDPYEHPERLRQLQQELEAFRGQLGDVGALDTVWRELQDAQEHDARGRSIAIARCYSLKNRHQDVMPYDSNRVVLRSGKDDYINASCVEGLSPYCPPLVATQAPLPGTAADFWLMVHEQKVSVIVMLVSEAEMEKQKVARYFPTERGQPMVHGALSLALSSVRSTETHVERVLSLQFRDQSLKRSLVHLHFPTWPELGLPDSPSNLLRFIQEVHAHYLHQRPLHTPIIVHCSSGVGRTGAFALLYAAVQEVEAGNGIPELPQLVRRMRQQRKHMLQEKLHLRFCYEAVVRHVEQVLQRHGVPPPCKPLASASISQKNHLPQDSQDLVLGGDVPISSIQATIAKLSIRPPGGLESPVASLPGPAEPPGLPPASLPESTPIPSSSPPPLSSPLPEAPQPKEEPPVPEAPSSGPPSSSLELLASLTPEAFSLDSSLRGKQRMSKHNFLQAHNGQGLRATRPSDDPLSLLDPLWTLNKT

B1: LZTR1 R810W-FLAG (other, human, UniProt Q8N653 1-840, looked up)
chain: MAGPGSTGGQIGAAALAGGARSKVAPSVDFDHSCSDSVEYLTLNFGPFETVHRWRRLPPCDEFVGARRSKHTVVAYKDAIYVFGGDNGKTMLNDLLRFDVKDCSWCRAFTTGTPPAPRYHHSAVVYGSSMFVFGGYTGDIYSNSNLKNKNDLFEYKFATGQWTEWKIEGRLPVARSAHGATVYSDKLWIFAGYDGNARLNDMWTIGLQDRELTCWEEVAQSGEIPPSCCNFPVAVCRDKMFVFSGQSGAKITNNLFQFEFKDKTWTRIPTEHLLRGSPPPPQRRYGHTMVAFDRHLYVFGGAADNTLPNELHCYDVDFQTWEVVQPSSDSEVGGAEVPERACASEEVPTLTYEERVGFKKSRDVFGLDFGTTSAKQPTQPASELPSGRLFHAAAVISDAMYIFGGTVDNNIRSGEMYRFQFSCYPKCTLHEDYGRLWESRQFCDVEFVLGEKEECVQGHVAIVTARSRWLRRKITQARERLAQKLEQEAAPVPREAPGVAAGGARPPLLHVAIREAEARPFEVLMQFLYTDKIKYPRKGHVEDVLLIMDVYKLALSFQLCRLEQLCRQYIEASVDLQNVLVVCESAARLQLSQLKEHCLNFVVKESHFNQVIMMKEFERLSSPLIVEIVRRKQQPPPRTPLDQPVDIGTSLIQDMKAYLEGAGAEFCDITLLLDGHPRPAHKAILAARSSYFEAMFRSFMPEDGQVNISIGEMVPSRQAFESMLRYIYYGEVNMPPEDSLYLFAAPYYYGFYNNRLQAYCKQNLEMNVTVQNVLQILEAADKTQALDMKRHCLHIIVHQFTKVSKLPTLWSLSQQLLLDIIDSLASHISDKQCAELGADI
notes: Stably expressed in U87 cells by lentivirus; also called LZTR1-FLAG-R810W; LZTR1 RW; not shown: FLAG tag
binds: all assays above
